Where no end group is shown, it is not given here.

The target of test [1] is AkFaNaC W167F (Aplysia kurodai).
Test [2] concerns the target AkFaNaC W167Y (Aplysia kurodai).

B1: FMRFamide (peptide)
peptide: FMRF-NH2
For the molecule B1, the EC50 of the FMRFamide-gated Na+ current (COVC, Xenopus oocytes) in test [1] and in test [2] was greater than 100 µM throughout.
